Experiment [1] addresses T1, control peptide A2E-1/HLA-A*02:01 complex on T2 cells (member of the P19 mixture) (human).
T1 construct: Loaded on T2 cells as part of the mixture of 19 control peptides
The experiment is described as follows: flow cytometry, phage on T2 cells. How it is done:
(§1) Individual phage clones from enriched phage display panning pools against PSA146/HLA-A*02:01 complex were incubated in the coated plates. Binding of the phage clones was detected by HRP-conjugated anti-M13 antibodies and developed using HRP substrate. The absorbance was read at 450 nm. […] Then, unique antibody clones were identified through DNA sequencing of ELISA-positive clones. […] T2 cells loaded with different peptides and β2M were first stained with purified scFv phage clones, followed by staining with a mouse anti-M13 mAb, and finally R-PE conjugated horse anti-mouse IgG from Vector Labs. Each step of the staining was performed for between 30-60 minutes on ice and the cells were washed twice between stainings. All 16 clones recognized PSA146-loaded T2 cells specifically. FIG. 3 provides examples of PSA146/HLA-A*02:01 specific phage clone binding to peptide-loaded T2 cells through FACS.

Experiment [2] addresses T2, control peptide A2E-2/HLA-A*02:01 complex on T2 cells (member of the P19 mixture) (human).
T2 construct: Loaded on T2 cells as part of the mixture of 19 control peptides
The experiment is described as follows: flow cytometry, phage on T2 cells. Here is the method:
as §1

Experiment [3] has as its target T3, control peptide A2E-3/HLA-A*02:01 complex on T2 cells (member of the P19 mixture) (human).
T3 construct: Loaded on T2 cells as part of the mixture of 19 control peptides
The experiment is described as follows: flow cytometry, phage on T2 cells. How it is done:
as §1

Experiment [4] addresses T4, control peptide A2E-4/HLA-A*02:01 complex on T2 cells (member of the P19 mixture) (human).
T4 construct: Loaded on T2 cells as part of the mixture of 19 control peptides
Description: flow cytometry, phage on T2 cells. How it is done: as §1

The target in experiment [5] is T5, control peptide A2E-5/HLA-A*02:01 complex on T2 cells (member of the P19 mixture) (human).
T5 construct: Loaded on T2 cells as part of the mixture of 19 control peptides
Description: flow cytometry, phage on T2 cells. How it is done: as §1

In experiment [6] the target is T6, control peptide A2E-6/HLA-A*02:01 complex on T2 cells (member of the P19 mixture) (human).
T6 construct: Loaded on T2 cells as part of the mixture of 19 control peptides
The experiment is described as follows: flow cytometry, phage on T2 cells. Here is the method:
as §1

Experiment [7] has as its target T7, control peptide A2E-7/HLA-A*02:01 complex on T2 cells (member of the P19 mixture) (human).
T7 construct: Loaded on T2 cells as part of the mixture of 19 control peptides
The experiment is described as follows: flow cytometry, phage on T2 cells. Here is the method: as §1

The target of experiment [8] is T8, control peptide A2E-8/HLA-A*02:01 complex on T2 cells (member of the P19 mixture) (human).
T8 construct: Loaded on T2 cells as part of the mixture of 19 control peptides
The experiment is described as follows: flow cytometry, phage on T2 cells. How it is done:
as §1

The target of experiment [9] is T9, control peptide A2E-9/HLA-A*02:01 complex on T2 cells (member of the P19 mixture) (human).
T9 construct: Loaded on T2 cells as part of the mixture of 19 control peptides
Description: flow cytometry, phage on T2 cells. Here is the method:
as §1

Experiment [10] deals with T10, control peptide A2E-10/HLA-A*02:01 complex on T2 cells (member of the P19 mixture) (human).
T10 construct: Loaded on T2 cells as part of the mixture of 19 control peptides
Description: flow cytometry, phage on T2 cells. Here is the method:
as §1

The target in experiment [11] is T11, control peptide A2E-11/HLA-A*02:01 complex on T2 cells (member of the P19 mixture) (human).
T11 construct: Loaded on T2 cells as part of the mixture of 19 control peptides
Description: flow cytometry, phage on T2 cells. How it is done:
as §1

Experiment [12] deals with T12, control peptide A2E-13/HLA-A*02:01 complex on T2 cells (member of the P19 mixture) (human).
T12 construct: Loaded on T2 cells as part of the mixture of 19 control peptides
The experiment is described as follows: flow cytometry, phage on T2 cells. How it is done:
as §1

The target of experiment [13] is T13, control peptide A2E-14/HLA-A*02:01 complex on T2 cells (member of the P19 mixture) (human).
T13 construct: Loaded on T2 cells as part of the mixture of 19 control peptides
Description: flow cytometry, phage on T2 cells. Here is the method:
as §1

Experiment [14] addresses T14, control peptide A2E-15/HLA-A*02:01 complex on T2 cells (member of the P19 mixture) (human).
T14 construct: Loaded on T2 cells as part of the mixture of 19 control peptides
The experiment is described as follows: flow cytometry, phage on T2 cells. How it is done: as §1

Experiment [15] has as its target T15, control peptide A2E-16/HLA-A*02:01 complex on T2 cells (member of the P19 mixture) (human).
T15 construct: Loaded on T2 cells as part of the mixture of 19 control peptides
The experiment is described as follows: flow cytometry, phage on T2 cells. Here is the method: as §1

Experiment [16] has as its target T16, control peptide A2E-17/HLA-A*02:01 complex on T2 cells (member of the P19 mixture) (human).
T16 construct: Loaded on T2 cells as part of the mixture of 19 control peptides
The experiment is described as follows: flow cytometry, phage on T2 cells. How it is done:
as §1

Experiment [17] addresses T17, control peptide A2E-19/HLA-A*02:01 complex on T2 cells (member of the P19 mixture) (human).
T17 construct: Loaded on T2 cells as part of the mixture of 19 control peptides
Description: flow cytometry, phage on T2 cells. How it is done: as §1

Experiment [18] concerns the target T18, control peptide A2E-21/HLA-A*02:01 complex on T2 cells (member of the P19 mixture) (human).
T18 construct: Loaded on T2 cells as part of the mixture of 19 control peptides
The experiment is described as follows: flow cytometry, phage on T2 cells. Here is the method: as §1

In experiment [19] the target is T19, control peptide A2E-23/HLA-A*02:01 complex on T2 cells (member of the P19 mixture) (human).
T19 construct: Loaded on T2 cells as part of the mixture of 19 control peptides
Description: flow cytometry, phage on T2 cells. How it is done: as §1

For the next experiment, the target named is T20, Bio-P19 member A2E-1 (chain 2: C-terminal BirA substrate peptide (BSP), enzymatically biotinylated; its letters are not printed in the patent and it is left out).
T20 construct: also called biotinylated control peptide A2E-1/HLA-A*02:01 monomer
The experiment is described as follows: phage ELISA, streptavidin plate, anti-M13-HRP. Here is the method: as §1

A further experiment has as its target T21, Bio-P19 member A2E-10 (chain 2: C-terminal BirA substrate peptide (BSP), enzymatically biotinylated; its letters are not printed in the patent and it is left out).
T21 construct: also called biotinylated control peptide A2E-10/HLA-A*02:01 monomer
The experiment is described as follows: phage ELISA, streptavidin plate, anti-M13-HRP. How it is done:
as §1

Another experiment has as its target T22, Bio-P19 member A2E-14 (chain 2: C-terminal BirA substrate peptide (BSP), enzymatically biotinylated; its letters are not printed in the patent and it is left out).
T22 construct: also called biotinylated control peptide A2E-14/HLA-A*02:01 monomer
Description: phage ELISA, streptavidin plate, anti-M13-HRP. Here is the method: as §1

The target in experiment [20] is T23, PSA 146-154 peptide/HLA-A*02:01 complex on the cell surface (human).
T23 construct: also called PSA146/HLA-A*02:01; PSA146-loaded T2 cells
The experiment is described as follows: flow cytometry, phage on T2 cells, anti-M13 + R-PE anti-mouse IgG. Here is the method: as §1

Experiment [21] addresses T24, HLA-A*02:01 on T2 cells with no peptide loaded (human).
T24 construct: TAP-deficient T2 cells, no peptide loaded from outside; also called T2 cells without peptide loading
Described as above. Here is the method: as §1

This note sets out measurements from patent US20200087400A1 (EUREKA THERAPEUTICS, published 2020).

B1: PSA146/HLA-A*02:01-specific scFv phage clone #6 (scFv, V domains shown)
VH: EVQLVQSGAEVKKPGASVKVSCKASGYTFTGYYIHWVRQAPGQGLEWMGGFDPEDGETIYAQKFQDRVTMTADTSTDTAYMELSSLRSEDTAVYYCARYGFDYWGQGTLVTVSS
VL: QAVVTQEPSLTVSPGGTVTLTCASSTGAVTSGYYPNWFQLKPGQAPRALIYTTGKKHSWAPARFSGSLLGGKAALTLSGVQPEDEAEYYCLLYSGGVWVFGGGTKLTVLG
With B1, the binding result in experiment [1], in [2], in experiment [3], in [4], in [5] and in experiment [6] was “no binding” each time. The binding result in experiment [7], in [8], in experiment [9], in [10], in experiment [11] and in [12] was “no binding” each time. The binding result in experiment [13], in experiment [14], in experiment [15], in experiment [16], in experiment [17] and in [18] was “no binding” each time. The binding result in experiment [19] is given as “no binding”; with Bio-P19 member A2E-1 it was “no binding”; with Bio-P19 member A2E-10, “no binding”; with Bio-P19 member A2E-14, “no binding”; in experiment [20], “binds”; in experiment [21] it was “no binding”.

B2: PSA146/HLA-A*02:01-specific scFv phage clone #5 (scFv, V domains shown)
VH: QVQLVQSGAEVKKPGDSVKVSCKPSGYNFLNYGINWVRQAPGQGLEWMGWISTYTGNTNYAQKLQGRVTFTTDTSTSTAYMEMRSLRSDDTAVYYCARSSEYYTWDHWGQGTLVTVSS
VL: QSVLTQPPSVSGAPGQRVTISCTGSSSNIGAGYDVHWYQQLPGTAPKLLIYGNSNRPSGVPDRFSGSKSGTSASLAITGLQAEDEADYYCQSYDSSLSGWVFGGGTKLTVLG
In the case of B2, the binding result in experiment [1], in experiment [2], in [3], in experiment [4], in experiment [5] and in experiment [6] was “no binding” in each case. Moreover, the binding result in experiment [7], in experiment [8], in experiment [9], in experiment [10], in [11] and in [12] was “no binding” each time. In addition, the binding result in experiment [13], in experiment [14], in experiment [15], in experiment [16], in [17] and in experiment [18] was “no binding” each time. Further, the binding result in [19] is recorded as “no binding”; with Bio-P19 member A2E-1, “no binding”; with Bio-P19 member A2E-10, “no binding”; with Bio-P19 member A2E-14, “no binding”; in [20], “binds”; in [21] it was “no binding”.

B3: PSA146/HLA-A*02:01-specific scFv phage clone #9 (scFv, V domains shown)
VH: QVQLVQSGAEVKKPGASVKVSCKASGYTFTSYGISWVRQAPGQGLEWMGWISAYNGNTNYAQKLQGRVTMTTDTSTSTAYMELRSLRSDDTAVYYCARSSQYYVWDSWGQGTLVTVSS
VL: QSVVTQPPSVSGAPGQRVTISCTGSSSNFGAGYDVHWYQQLPGTAPKLLIYGNSNRPSGVPDRFSGSKSGTSASLAITGLQAEDEADYYCQSYDSSLSGWVFGGGTKLTVLG
As to B3, the binding result in experiment [1], in experiment [2], in experiment [3], in [4], in experiment [5] and in [6] was “no binding” throughout. The binding result in experiment [7], in experiment [8], in experiment [9], in experiment [10], in experiment [11] and in experiment [12] was “no binding” throughout. In addition, the binding result in [13], in experiment [14], in [15], in experiment [16], in experiment [17] and in experiment [18] was “no binding” in each case. In addition, the binding result in experiment [19] is listed as “no binding”; with Bio-P19 member A2E-1, “no binding”; with Bio-P19 member A2E-10, “no binding”; with Bio-P19 member A2E-14, “no binding”; in [20], “binds”; in experiment [21], “no binding”.
